Data on 7 molecules can be found in patent US20260098080A1, “A MODIFIED PROTEIN SCAFFOLD AND USE THEREOF” (EVOLVERITAS BIOTECHNOLÓGIAI KORLÁTOLT FELELOSSÉGU TÁRSASÁG, priority 2022, published 2026).

Several values for one entry are separate records, joined by “and”; a condition that tells them apart may be missing. Equal values may be shown once. Bridges are numbered along the chain shown (N, C = ends). Where no end group is shown, it is not given here.

The Kd is the concentration at which binding is half-saturated. Read a high Kd as a looser complex. Usually koff stands for the rate constant with which the complex falls apart. As usually defined, the kon is a measure of how fast the partners come together. A low value points to slower complex formation. For orientation: Ki means a measure of affinity in units of concentration, obtained from inhibition or displacement. A higher Ki goes with lower affinity.

One series concerns extrinsic pathway. Description: Human blood coagulation: prothrombin time. Type of series: biochemical. The note with it: human plasma, duplicates 21/1 and 21/2. The method, then:
(§1) The effect of the proteins of the present invention on the blood coagulation process was tested in three standard assays, the thrombin time, testing any direct effects on thrombin; prothrombin time, testing any effects on the extrinsic pathway; and the activated partial thromboplastin time, testing any effects on the intrinsic pathway.
(§2) Blood was collected from a healthy individual by vein puncture after informed consent. The blood was treated with sodium-citrate (3.8% wt/vol) and centrifuged. All three assays were performed on the automated instrument Sysmex CA-1500 (Sysmex) with Innovin reagent (Dale Behring, Marburg, Germany).
(§3) The proteins of the present invention were applied in a twofold serial dilution in 1.4% wt/vol sodium bicarbonate (vehicle) with the highest final concentration being 10 μM (3.4 μM for EVO24 (SEQ ID NO: 15)) and the lowest final concentration being 156 nM (53 nM for EVO24 (SEQ ID NO: 15)).
(§4) All measurements were done in duplicates and a vehicle control was also tested. The highest concentration value is about 5 orders of magnitudes higher than the KD values of the four proteins of the present invention on human MASP-2.

In the next series the test system is intrinsic pathway. In words: Human blood coagulation: activated partial thromboplastin time. To be noted: human plasma, duplicates 21/1 and 21/2. Type of series: biochemical. As for the experimental part: as §1, §2, §3, §4
In another series the test system is thrombin. In words: Human blood coagulation: thrombin time. Type of series: biochemical. The note with it: human plasma, duplicates 21/1 and 21/2. The method, then:
as §1, §2, §3, §4

Series [1] has as its target T1, human MASP-2 (in normal human serum) (human, UniProt O00187 16-686). Description: cell-based or functional assay.
Series [2] has as its target rat MASP-2 (in rat serum) (rat, UniProt Q9JJS8 20-685). Description: cell-based or functional assay.
Series [3] has as its target T2, human MASP-2cf CCP1-CCP2-SP (human, UniProt O00187 298-686, limits assumed).
T2 construct: domain: CCP1-CCP2-SP; also called human MASP-2 catalytic fragment
Description: SPR, target immobilised.

Series [4] concerns the target T3, rat MASP-2cf CCP1-CCP2-SP (rat, UniProt Q9JJS8 298-685).
T3 construct: range 298-685; Mw 42309 Da; also called rat MASP-2 catalytic fragment
In words: SPR, target immobilised.

The target of series [5] is T2, human MASP-2cf CCP1-CCP2-SP. Description: enzyme inhibition, tight-binding fit.
Series [6] concerns the target T3, rat MASP-2cf CCP1-CCP2-SP. Description: enzyme inhibition, tight-binding fit.
Series [7] deals with T1, human MASP-2 (in normal human serum). Description: cell-based or functional assay. This is another data set of the same source.

T3 sequence (Q9JJS8 other isoform, or with tags, fused parts or gaps limits assumed, form in doubt): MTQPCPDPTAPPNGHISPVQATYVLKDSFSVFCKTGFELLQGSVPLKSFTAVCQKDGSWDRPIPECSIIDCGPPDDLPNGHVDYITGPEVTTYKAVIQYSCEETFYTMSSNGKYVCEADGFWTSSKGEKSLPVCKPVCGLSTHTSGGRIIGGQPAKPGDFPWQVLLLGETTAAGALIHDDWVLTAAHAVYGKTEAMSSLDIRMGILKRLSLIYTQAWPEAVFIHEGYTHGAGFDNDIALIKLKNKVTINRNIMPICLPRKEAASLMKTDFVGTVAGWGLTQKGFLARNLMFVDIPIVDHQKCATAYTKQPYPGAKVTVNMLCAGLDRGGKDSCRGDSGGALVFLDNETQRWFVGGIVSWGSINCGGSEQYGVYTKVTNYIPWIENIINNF
T2 sequence (O00187 298-686 limits assumed): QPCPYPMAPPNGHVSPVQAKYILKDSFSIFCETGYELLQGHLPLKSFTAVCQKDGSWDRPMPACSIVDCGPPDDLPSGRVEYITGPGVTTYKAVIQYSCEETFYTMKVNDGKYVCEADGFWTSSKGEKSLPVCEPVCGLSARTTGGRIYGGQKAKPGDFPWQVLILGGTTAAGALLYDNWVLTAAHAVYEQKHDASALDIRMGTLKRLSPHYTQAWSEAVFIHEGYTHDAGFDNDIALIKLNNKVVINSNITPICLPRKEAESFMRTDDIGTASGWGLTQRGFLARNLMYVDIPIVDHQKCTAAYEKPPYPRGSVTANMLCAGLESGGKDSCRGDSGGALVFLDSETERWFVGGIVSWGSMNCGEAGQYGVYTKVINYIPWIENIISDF
T1 sequence (O00187 16-686 limits assumed): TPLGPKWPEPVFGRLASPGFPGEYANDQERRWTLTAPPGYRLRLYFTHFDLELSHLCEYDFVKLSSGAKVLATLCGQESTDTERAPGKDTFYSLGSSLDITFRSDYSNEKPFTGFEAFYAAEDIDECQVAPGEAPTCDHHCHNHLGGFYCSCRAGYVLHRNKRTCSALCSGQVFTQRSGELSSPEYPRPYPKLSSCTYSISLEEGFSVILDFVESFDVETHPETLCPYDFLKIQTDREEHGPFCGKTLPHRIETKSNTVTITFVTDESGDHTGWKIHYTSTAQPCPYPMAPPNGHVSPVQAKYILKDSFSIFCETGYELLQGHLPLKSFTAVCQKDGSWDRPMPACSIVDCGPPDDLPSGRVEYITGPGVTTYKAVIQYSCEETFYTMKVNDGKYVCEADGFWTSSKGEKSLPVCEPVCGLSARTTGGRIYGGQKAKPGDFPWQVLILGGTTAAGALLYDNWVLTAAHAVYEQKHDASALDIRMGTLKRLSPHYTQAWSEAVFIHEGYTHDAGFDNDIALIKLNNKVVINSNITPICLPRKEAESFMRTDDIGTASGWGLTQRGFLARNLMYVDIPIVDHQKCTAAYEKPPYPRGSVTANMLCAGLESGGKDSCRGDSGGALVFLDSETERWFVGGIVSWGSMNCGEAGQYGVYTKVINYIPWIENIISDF
rat MASP-2 (in rat serum), sequence (Q9JJS8 20-685 limits assumed): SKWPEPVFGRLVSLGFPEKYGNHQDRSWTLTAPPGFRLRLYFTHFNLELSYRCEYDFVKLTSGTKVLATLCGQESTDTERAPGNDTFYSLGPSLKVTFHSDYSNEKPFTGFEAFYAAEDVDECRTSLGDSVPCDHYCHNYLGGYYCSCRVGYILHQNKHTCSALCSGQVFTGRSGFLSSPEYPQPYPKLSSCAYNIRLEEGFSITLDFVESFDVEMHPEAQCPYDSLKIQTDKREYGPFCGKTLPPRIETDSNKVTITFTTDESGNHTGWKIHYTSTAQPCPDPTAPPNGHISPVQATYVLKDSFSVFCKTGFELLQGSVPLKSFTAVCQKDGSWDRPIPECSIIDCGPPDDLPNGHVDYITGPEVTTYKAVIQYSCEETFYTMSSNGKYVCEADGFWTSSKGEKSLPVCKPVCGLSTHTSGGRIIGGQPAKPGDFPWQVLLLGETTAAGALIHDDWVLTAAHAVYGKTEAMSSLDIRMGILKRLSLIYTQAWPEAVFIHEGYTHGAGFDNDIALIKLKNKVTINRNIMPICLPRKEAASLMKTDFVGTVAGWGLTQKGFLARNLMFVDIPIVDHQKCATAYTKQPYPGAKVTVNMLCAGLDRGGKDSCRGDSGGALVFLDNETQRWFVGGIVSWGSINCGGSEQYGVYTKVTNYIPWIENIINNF

For “KPDFCFLENDPGPCRALKRRYFYNNQTKQCERFGYGGCLGNMNNFVTLEECKNICEDG (disulfide 5-55, 14-38, 30-51) [EVO21]”, the PI was 10.2 and 10.0 with extrinsic pathway (0.15625 μM); 10.1 and 10.0 in the series with extrinsic pathway (0.3125 μM); 10.1 and 10.0 in the series on extrinsic pathway (0.625 μM); 10.2 and 10.1 in the series on extrinsic pathway (1.25 μM); 10.3 and 10.2 with extrinsic pathway (2.5 μM); 10.6 and 10.3 in the series with extrinsic pathway (5 μM). For the same molecule, the PI in the series on extrinsic pathway (10 μM) is 11.4 and 11.9. Also, the APTT is 32.9 and 32.3 with intrinsic pathway (0.15625 μM); 33.6 and 32.8 with intrinsic pathway (0.3125 μM); 34.3 and 33.6 in the series on intrinsic pathway (0.625 μM); 37.0 and 34.8 with intrinsic pathway (1.25 μM); 40.0 and 37.1 with intrinsic pathway (2.5 μM); 45.6 and 40.1 with intrinsic pathway (5 μM). In the series on intrinsic pathway (10 μM), the APTT is 58.7 and 67.6. For the same molecule, the TT is 17.1 and 17.0 with thrombin (0.15625 μM); 16.9 and 17.0 with thrombin (0.3125 μM); 16.8 and 16.9 in the series with thrombin (0.625 μM); 16.9 and 17.1 in the series on thrombin (1.25 μM); 16.4 and 17.4 in the series with thrombin (2.5 μM); 16.5 and 17.4 with thrombin (5 μM). In addition, in the series on thrombin (10 μM), the TT is 16.8 and 16.4.

B1: EVO22 (designed binder)
chain: KPDFCFLENDPGPCRALKRRYFYNNQTKQCERFYYGGCLGNMNNFVTLEECKNICEDG
modifications: not fully specified; cysteine pairing not given here
notes: Modified TFPI-D2 Kunitz domain; made as m1
With B1, in series [1], the “IC50, lectin pathway C4 deposition, human serum” value (“IC50 … human serum” below) is 4100 pM and the “Relative potency, lectin pathway, human serum” value (from here on “Relative potency … human serum”) was found to be 33.4 fold vs EVO2. Also, in [2], the “IC50, lectin pathway C4 deposition, rat serum” value (“IC50 … rat serum” for short) is 9900 pM and the “Relative potency, lectin pathway, rat serum” value (“Relative potency … rat serum” for short) stood at 10.8 fold vs EVO2. In [3], the Kd turned out to be 137 pM, the Relative affinity turned out to be 13.1 fold vs EVO2, the koff was determined as 0.000314 s⁻¹ and the on-rate constant (kon) amounted to 2.3e+06 M⁻¹ s⁻¹. In [4], this molecule returned a Kd of 229 pM, a Relative affinity of 15.9 fold vs EVO2, an off-rate constant (koff) of 0.000256 s⁻¹ and an association rate constant (kon) of 1.12e+06 M⁻¹ s⁻¹. Moreover, affinity in series [5] was put at a Ki of 150 pM. Also, in [6], the inhibition constant Ki came out at 310 pM.

B2: EVO224 (designed binder)
chain: KPDFCFLENDPGVCRALAVRYFYNNQTKQCERFYYGGCLGNMNNFVTLEECKNICEDG
modifications: not fully specified; cysteine pairing not given here
notes: as for B1
On to B2, for which, in series [1], the “IC50 … human serum” value worked out at 30900 pM and the “Relative potency … human serum” value was determined as 4.5 fold vs EVO2. Besides, in series [2], the “IC50 … rat serum” value amounted to 29600 pM and the “Relative potency … rat serum” value worked out at 3.6 fold vs EVO2. In series [3], this molecule showed a dissociation constant (Kd) of 561 pM, a Relative affinity of 3.2 fold vs EVO2, a koff of 0.000617 s⁻¹ and a kon of 1.1e+06 M⁻¹ s⁻¹. For the same molecule, in [4], the affinity, expressed as Kd, was 219 pM; the Relative affinity turned out to be 16.6 fold vs EVO2; the off-rate (koff) stood at 0.000184 s⁻¹; the on-rate constant (kon) came to 839000 M⁻¹ s⁻¹. For the same molecule, the Ki in series [5] was determined as 1130 pM. Further, the inhibitory constant (Ki) in [6] amounted to 140 pM.

B3: EVO2 (designed binder)
chain: KPDFCFLEEDPGPCRAVKRRYFYNNQTKQCERFKYGGCLGNMNNFETLEECKNICEDG
modifications: not fully specified; ends and bridges not checked
notes: Modified Kunitz domain TFPI-D2 of human TFPI-1; recombinant from E. coli, freed from a His6-S100A4 fusion by TEV protease; also called TFMI-2b
As for B3, in series [1], the “IC50 … human serum” value was found to be 138000 pM and the “Relative potency … human serum” value was found to be 1 fold vs EVO2. For the same molecule, in series [2], the “IC50 … rat serum” value was 106000 pM and the “Relative potency … rat serum” value came out at 1 fold vs EVO2. In series [3], this molecule showed a Kd of 1790 pM, a Relative affinity of 1 fold vs EVO2, an off-rate constant (koff) of 0.0014 s⁻¹ and an on-rate (kon) of 809000 M⁻¹ s⁻¹. In [4], this molecule came in with a Kd of 3630 pM, a Relative affinity of 1 fold vs EVO2, a koff of 0.00107 s⁻¹ and an on-rate constant (kon) of 310000 M⁻¹ s⁻¹. In series [5], the inhibitory constant (Ki) was determined as 650 pM. In series [6], this molecule registered an inhibitory constant (Ki) of 240 pM.

B4: EVO221 (designed binder)
chain: KPDFCFLENDPGVCRAAAVRYFYNNQTKQCERFYYGGCLGNMNNFVTLEECKNICEDG
modifications: not fully specified; cysteine pairing not given here
notes: as for B1
On to B4, for which the “Relative potency (relative human lectin pathway inhibitory efficiency compared to EVO2)” value in series [7] was 10.8 fold relative to EVO2. Besides, in [1], the “IC50 … human serum” value turned out to be 12700 pM and the “Relative potency … human serum” value was 10.9 fold vs EVO2. In series [2], the “IC50 … rat serum” value came out at 11000 pM and the “Relative potency … rat serum” value stood at 9.7 fold vs EVO2. In series [3], this molecule had a Kd of 127 pM, a Relative affinity of 14.1 fold vs EVO2, a dissociation rate constant (koff) of 0.000131 s⁻¹ and a kon of 1.03e+06 M⁻¹ s⁻¹. In addition, in [4], the Kd worked out at 170 pM, the Relative affinity was 21.4 fold vs EVO2, the koff is 0.000113 s⁻¹ and the kon is 664000 M⁻¹ s⁻¹. This molecule gave a Ki in series [5] of 190 pM. This molecule displayed a Ki in [6] of 100 pM.

B5: EVO21c (designed binder)
chain: KPDFCFLEEDPGPCRALKRRYFYNNQTKQCERFGYGGCFGNMNNFVTLEECKNICEDG
modifications: not fully specified; cysteine pairing not given here
notes: as for B1
For the molecule B5, the “Relative potency (relative human lectin pathway inhibitory efficiency compared to EVO2)” value in series [7] is 22.3 fold relative to EVO2. In addition, in [1], the “IC50 … human serum” value was 6200 pM and the “Relative potency … human serum” value came to 22.4 fold vs EVO2. Moreover, in series [2], the “IC50 … rat serum” value stood at 12400 pM and the “Relative potency … rat serum” value amounted to 8.5 fold vs EVO2. Further, the Ki in [5] worked out at 65 pM. In addition, in [6], the affinity corresponds to a Ki of 7 pM.

B6: EVO222 (designed binder)
chain: KPDFCFLENDPGLCRAAAVRYFYNNQTKQCERFYYGGCLGNMNNFVTLEECKNICEDG
modifications: not fully specified; cysteine pairing not given here
notes: as for B1
For B6, in series [1], the “IC50 … human serum” value came out at 9800 pM and the “Relative potency … human serum” value stood at 14.1 fold vs EVO2. In addition, in [2], the “IC50 … rat serum” value is 24200 pM and the “Relative potency … rat serum” value amounted to 8.9 fold vs EVO2. In series [3], this molecule showed a Relative affinity of 40 fold vs EVO2, a koff of 4.26e-05 s⁻¹ and a kon of 954000 M⁻¹ s⁻¹. In series [4], this molecule registered a dissociation constant (Kd) of 566 pM, a Relative affinity of 6.4 fold vs EVO2, a koff of 0.000262 s⁻¹ and a kon of 463000 M⁻¹ s⁻¹. In series [5], the Ki was 100 pM. This molecule also came in with a Ki in series [6] of 270 pM.
